In patent US20260062466A1 one finds FRNT neutralisation of ONNV, EC50, FRNT neutralisation, 37997 EC50 and FRNT neutralisation, LR 2006 EC50 data, which are given here for six molecules.

B1: 516.H07 (antibody, V domains shown)
VH: EVQLVESGGGLVQPGGSLRLSCAASGFTFSSYEMNWVRQAPGKGLEWVSYMSYTGSTIYYADSVKGRFTISRDNGKNSLYLQMNSLRVEDTAVYYCARGGVVVAPTYFDYWGQGTLVTVSS
VL: QSVLTQPPSVSGAPGQRVTISCTGSSSNIGAGYDVHWYQQLPGTAPKLLIYHNNNRPSGVPDRFSASKSGTSASLAITGLQAEDEADYYCQSYDSSLSGWVFGGGTKLTVL
B2: 506.C01 (antibody, V domains shown)
VH: QVQLQESGPGLVKPSQTLSLTCTVSGGSISSDDYYWTWIRLPPGKGLEWIGYIFYTGGTYYNPSLKSRVTISLDRSKNQFSLKLSSVTAADTAVYFCARAPETYCSTTNCYKGYFDSWGQGTLVTVSS
VL: DIQMTQSPSSVSASVGDRVTITCRASQGISSWLGWYQQKPGKAPKLLIYAASSLQSGVPSRFSGSGSGTDFTLTISSLQPEDFATYYCQQANSFPRTFGQGTKVEIK
B3: 516.F07 (antibody, V domains shown)
VH: EVQLVQSGAEVKKPGESLKISCKGSGYRFTSYWIAWVRQMPGKGLECMGIIYPGDSDTRYSPSFQGQVTISVDKSISTAYLQWSSLKASDTAMFYCARHNNNWSLQGYFDYWGQGTLVTVSS
VL: PSALTQPASVSGSPGQSITISCTGTSSDVGGYNYVSWYQQHPGKAPKLMIYDVSNRSSGVSNRFSGSKSGNTASLTISGLQAEDEADYYCSSYTGSSTSNYVFGTGTKVTVL
B4: 520.D02 (antibody, V domains shown)
VH: QVQLVQSGSELQKPGASVKVSCKASGYTFTENAIIWVRQAPGQGLEWMGRIIRYPGRPTIAQGFTGRFGFSLDTSINTAYLEISNLKAEDTAFFYCAREYCDSSSCSSFDYWGQGTLVTVSS
VL: QSVLTQPPSASGSPGQSVTISCTGTNNDVGIYSYVSWYQQHPGKAPKLMIYEVSKRPSGVPDRFSGSKSGNTASLTVSGLQADDEADYYCSSYAGSNSYVFGSGTKVTVL
B5: 516.H09 (antibody, V domains shown)
VH: QLQLQESGPGLVKPSETLSLTCTVSGGSISSSSYYWGWIRQPPGKGLEWIGSIYYSGSTYYNPSLKSRVTISVDTSKNQFSLKLSSVTAADTAVYYCARHSYCSGGSCYLAPLGDWGQGTLVTVSS
VL: SYVLTQPPSVSVAPGKTARITCGGNNIGSKSVHWYQQKPGQAPVLVIYYDSDRPSGIPERFSGSNSGNTATLTISRVEAGDEADYYCQVWDSSSDFYVFGTGTKVTVL
B6: 516.D09 (antibody, V domains shown)
VH: QVQLVQSGAEVKKPGSSVKVSCKAFGGTFSSSAITWVRQAPGQGLEWMGRIIPIFGTANYAQKFQGRVTITADKSTTTAYMELSSLRSEDTAVYYCALKADSYCSGSSCYPSFDYWGQGTLVTVSS
VL: B5 VL with K38R, I47V, Y49D, F96Q, Y97E, T101G, V105L

Positions count from the first letter of the chain named.

Chain of CHIKV-37997 (virus) (Chikungunya virus strain 37997) (Q5XXP3 326-748 limits assumed, chain 1 of 2): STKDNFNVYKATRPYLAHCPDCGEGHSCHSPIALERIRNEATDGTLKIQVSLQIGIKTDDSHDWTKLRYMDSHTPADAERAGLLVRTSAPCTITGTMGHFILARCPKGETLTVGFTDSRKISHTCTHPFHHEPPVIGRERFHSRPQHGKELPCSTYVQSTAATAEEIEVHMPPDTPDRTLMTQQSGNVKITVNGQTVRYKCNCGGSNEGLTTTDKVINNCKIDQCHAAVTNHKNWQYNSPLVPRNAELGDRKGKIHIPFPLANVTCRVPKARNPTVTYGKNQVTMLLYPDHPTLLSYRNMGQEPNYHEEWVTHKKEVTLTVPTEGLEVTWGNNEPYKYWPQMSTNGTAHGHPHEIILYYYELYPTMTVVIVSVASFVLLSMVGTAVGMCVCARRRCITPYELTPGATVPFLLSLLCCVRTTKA
Chain of CHIKV-37997 (virus) (Chikungunya virus strain 37997) (Q5XXP3 810-1248 limits assumed, chain 2 of 2): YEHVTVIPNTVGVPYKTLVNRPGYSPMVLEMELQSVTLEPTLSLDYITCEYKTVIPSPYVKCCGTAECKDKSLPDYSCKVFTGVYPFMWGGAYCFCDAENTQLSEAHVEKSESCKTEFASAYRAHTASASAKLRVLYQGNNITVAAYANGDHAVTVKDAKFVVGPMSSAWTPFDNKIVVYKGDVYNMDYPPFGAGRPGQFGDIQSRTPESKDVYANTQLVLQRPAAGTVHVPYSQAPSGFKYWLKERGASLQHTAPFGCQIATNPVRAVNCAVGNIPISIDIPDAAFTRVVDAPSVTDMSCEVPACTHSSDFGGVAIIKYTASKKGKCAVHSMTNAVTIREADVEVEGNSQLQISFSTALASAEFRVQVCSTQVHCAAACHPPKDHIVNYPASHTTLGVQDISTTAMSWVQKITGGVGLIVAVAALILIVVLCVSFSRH

One test deals with ONNV (O'nyong'nyong virus, MP30) envelope glycoproteins (O'nyong'nyong virus strain MP30). In words: cell-based or functional assay.
For B1, the FRNT neutralisation of ONNV, EC50 was < 50 ng/mL.
As for B2, the FRNT neutralisation of ONNV, EC50 was < 50 ng/mL.

A further test addresses CHIKV-37997 (virus) (Chikungunya virus strain 37997) (UniProt Q5XXP3). In words: cell-based or functional assay.
B3 registered an FRNT neutralisation, 37997 EC50 of 4 ng/mL.
Same read-out and setting: the result for B1 reads 910 ng/mL.
In the case of B4, the FRNT neutralisation, 37997 EC50 was 2 ng/mL.
For the molecule B5, the FRNT neutralisation, 37997 EC50 was 526 ng/mL.
In turn, B6 returned an FRNT neutralisation, 37997 EC50 of 350 ng/mL.

The target of another test is CHIKV-LR 2006 (virus) (Chikungunya virus strain LR 2006). In words: cell-based or functional assay.
For B3, the FRNT neutralisation, LR 2006 EC50 is 31 ng/mL.
Same read-out and setting: the result for B1 reads 61 ng/mL; that for B4, 5 ng/mL.
On the same count and under the same terms, the result for B5 reads 182 ng/mL.
In turn, B6 showed an FRNT neutralisation, LR 2006 EC50 of 248 ng/mL.
